# From US12037419B2 (The Feinstein Institutes for Medical Research, priority 2016, dated 2024)
# Key:
# RAGE = biological target: T1, RAGE (Homo sapiens, UniProt Q15109); assay: SPR assay of C1q and RAGE binding; conditions: data not shown
# T1 construct: purchased R&D Systems
# Procedure: Surface Plasmon Resonance analysis (SPR): For real-time binding interaction studies, a BIAcore T200 instrument (GE Healthcare) was used. […] A 1:1 mixture of N-hydroxysuccinimide and N-ethyl-N-(dimethyaminopropyl) carbodiimide was used to activate 2 flow-cells of the CMS chip. […] The analytes were diluted in 1×PBS+0.01% (vol/vol) tween-20 buffer. The analytes were sequentially injected at a flow rate of 30 μl/min for 60 s at 25° C. The KD was dertermined using the BIAcore evaluation software 2.0 (GE Healthcare) supposing a 1:1 binding ratio.
# human monocytes [1] = assay: Induction of anti-inflammatory molecules / M2-like phenotype (Mer, PDL-1, IL-10, CD163) in monocytes; assay type: cell-based; conditions: together with HMGB1 3 μg/ml, C1q 25 μg/ml or C1q tail 53 μg/ml, 24 h
# Procedure: (§1) Monocyte isolation and stimulation: Human PBMCs were obtained following institutional guidelines of the Feinstein Institute for Medical Research (Feinstein) and isolated from blood of healthy donors by density centrifugation (New York Blood Bank). Monocytes were negatively enriched using a human monocyte enrichment kit (Stem Cell Technology). Purity of monocytes (≥90% CD11b+CD14+LAIR-1+) was determined by flow cytometry. […] Splenic murine monocytes from wild type mice, RAGE deficient or LAIR-1 conditional knockout mice were isolated using EasySep mouse monocyte enrichment kit (Stem Cell Technology). C57BL/6 mice, Lysozyme2-Cre transgenic mice were purchased from Jackson Laboratory. Myeloid specific LAIR-1 conditional knockout mice (Lysozyme2-Cre×LAIR fl/fl) were bred and maintained in our facility (Feinstein) under specific pathogen-free conditions. RAGE deficient mice (Department of Medicine, Karolinska Institute Stockholm, Sweden) were maintained at Feinstein. Eight-to ten weeks old male mice were used for experiments. All animal procedures were approved by the Feinstein Institutional Animal Care and Use Committee.
# RT-PCR analysis and primers: Total RNA was extracted from cells (1-2×10^6 cells per sample) with an RNeasy kit (Qiagen, Venlo, Limburg, Netherlands) and cDNA was generated using an iScript cDNA synthesis kit (Bio-Rad laboratories). […] The relative induction was calculated by 2-ΔΔCt.
# (§2) Cytokine analysis: Cytokine levels were measured using a Human Proinflammatory 7-plex assay following the manufacturer's protocols (Meso Scale Discovery (MSD). MSD plates were analyzed on the MS2400 imager (MSD). All standards and samples were run in duplicates.
# Flow cytometry: Cells were suspended in staining buffer containing 2% BSA and incubated with Fc block (Miltenyi Biotec) for 15 min on ice. […] Events were acquired using either an LSRII or Fortessa cell analyzer (BD Biosciences), and data were analyzed using FlowJo (Tree star).
# human monocytes [2] = assay: HMGB1-induced monocyte activation (cytokine mRNA by q-PCR, protein by ELISA/MSD); assay type: cell-based; conditions: HMGB1 alone
# Procedure: as §1
# RT-PCR analysis and primers: Total RNA was extracted from cells (1-2×10^6 cells per sample) with an RNeasy kit (Qiagen, Venlo, Limburg, Netherlands) and cDNA was generated using an iScript cDNA synthesis kit (Bio-Rad laboratories). Real Time-PCR was performed on a Light Cycler 480 II (Roche) using Light Cycler 480 master mix with primers (Applied Biosystems) for IFNα1 (Hs00256882), IFNα7 (mm02525960), MX1 (Hs00182073, mm01217998), IL-6 (Hs00985639, mm99999064), TNFα (Hs00174128, mm00443258), IL-12a (Hs00168405), Mer (Hs01031973), PDL-1 (Hs01125301), IL-10 (Hs00961622), CD163 (Hs00174705), HPRT1 (Hs99999909, mm01545399) and Polr2a (Hs00172187). The genes of interest were normalized to the expression of house keeping genes and were compared to a control condition with no treatment. The relative induction was calculated by 2-ΔΔCt.
# Transfection: For RNA interference assays, human monocytes were transfected using an Amaxa Nucleofector kit (Lonza) with a greater than 40% transfection efficiency. siRNAs were obtained from Qiagen. The target sequence of human LAIR1-11 is […] (SEQ ID NO:9). The efficiency of knockdown was determined by flow cytometry and q-PCR.
# as §2
# human monocytes [3] = assay: SeaHorse cellular flux assay (OCR, ECAR); assay type: cell-based; conditions: HMGB1 3 μg/ml alone, 24 h
# Procedure: Cell metabolism analysis using SeaHorse Cellular Flux assay. […] One hour prior to measurement, culture medium was exchanged for assay medium (unbuffered DMEM (Sigma), supplemented with 10 mM Glucose, 1 mM Pyruvate and 2 mM Glutamine for mitochondrial assays, or with 2 mM Glutamine alone for glycolytic assays. Reagents were injected during the measurement to achieve final concentrations of oligomycin (1 μM), carbonyl cyanide p-(trifluoromethoxy) phenylhydrazone (FCCP) ([…]), Rotenone/antimycin A (0.5 μM). Glucose (10 mM), and 2-Deoxy-D glucose (50 mM). Oxygen consumption rate (OCR) and Extracellular acidification rate (ECAR) values were measured using a SeaHorse XfP instrument (SeaHorse bioscience). Measured values were normalized to the number of live cells present in each well as determined by a trypan blue staining by the end of each run. For OCR/ECAR ratio calculations, an average of the last two basal readings was used for both OCR and ECAR.
# human monocytes [4] = assay: Monocyte to DC differentiation with GM-CSF and IL-4 (flow cytometry); assay type: cell-based; conditions: HMGB1 alone 24 h, then GM-CSF and IL-4
# [5] = test system: allogeneic primary human CD4 T cells; assay: Allogeneic mixed lymphocyte reaction; assay type: cell-based; conditions: HMGB1 3 μg/ml alone
# Procedure: Allogeneic CD4 T lymphocytes were isolated from blood using the Naïve CD4+ T cell isolation kit II (Miltenyi Biotec.) following the manufacturer's protocol. Cells were analyzed by flow cytometry (>90%). T cells were labeled with 5 μM Cell Trace Violet cell proliferation kit (Thermo Fisher Scientific), added to mono/macrophages at a density of 2×10^5 cells/well (a 1:2 ratio) in the presence of 1 μg/ml anti-CD3 (OKT3, eBioscience). Control cultures contained medium only or T cells or mono/macrophages alone. After 4 days, cells were stained with FITC-anti-CD4, PerCPCy 5.5-CD14, PE-LAIR-1 and fixable viability dyes (FVD, eBioscience) for 20 min at room temperature and subsequently washed and fixed. Live cells (FVD-negative cells) were then gated on CD4-positive, and cell trace violet was assessed by flow cytometry on a BD LSR II (BD Biosciences). Cell proliferation was analyzed as described (51). The % divided cells was defined as the probability that a cell has divided at least once from the original population. The division index was defined as the average number of cell divisions that a cell in the original population has undergone.
# murine macrophages = assay: RvD2 and LTB4 in murine macrophages after HMGB1 in vivo (FIG. 22); set-up: species or system mouse
# NZB/W mice = assay: NZB/W lupus mice in vivo (FIG. 23-25); set-up: species or system mouse
# T1 sequence (Q15109 23-342 limits assumed): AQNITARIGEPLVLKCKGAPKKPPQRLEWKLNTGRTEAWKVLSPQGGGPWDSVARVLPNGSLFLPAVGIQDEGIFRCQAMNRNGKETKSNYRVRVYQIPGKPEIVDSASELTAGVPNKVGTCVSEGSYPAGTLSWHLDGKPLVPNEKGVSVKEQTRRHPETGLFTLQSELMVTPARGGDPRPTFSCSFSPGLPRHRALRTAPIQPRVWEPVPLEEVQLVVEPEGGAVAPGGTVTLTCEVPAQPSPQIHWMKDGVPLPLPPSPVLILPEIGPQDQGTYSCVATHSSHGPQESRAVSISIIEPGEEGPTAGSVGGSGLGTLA
molecule,measurement,setting,value
C1q tail: C1q tail purified from whole C1q; collagen-like tail,binding to RAGE,RAGE,No binding
same,"transcription and protein expression of anti-inflammatory factors (Mer, PDL-1, IL-10, CD163)",human monocytes [1],did not mediate similar effects
"HMGB1: Recombinant HMGB1 (Calmodulin Binding Protein Epitope, Cbp tagged) (protein, left off: small tags and cut ends) MGKGDPKKPRGKMSSYAFFVQTCREEHKKKHPDASVNFSEFSKKCSERWKTMSAKEKGKFEDMAKADKARYEREMKTYIPPKGETKKKFKDPNAPKRPPSAFFLFCSEYRPKIKGEHPGLSIGDVAKKLGEMWNNTAADDKQPYEKKAAKLKEKYEKDIAAYRAKGKPDAAKKGVVKAEKSKKKKEEEEDEEDEEDEEEEEDEEDEDEEEDDDDE","transcription and secretion of type 1 IFN, IFN-inducible genes and proinflammatory cytokines",human monocytes [2],dramatically increased
same,OCR/ECAR ratio,human monocytes [3],significantly decreased
same,baseline oxidative phosphorylation (OCR) and glycolytic metabolism (ECAR),human monocytes [3],enhanced
same,monocyte to DC differentiation after pre-treatment with HMGB1,human monocytes [4],monocyte to DC differentiation occurred
same,stimulation of T cells by monocytes exposed to HMGB1,[5],induced the strongest mixed lymphocyte reaction
"KLKEKYEKDIAAYRAKGKPDAAKKGVVKAEKSKKGGGGSGGGGSGGGGSKGEQ GEPGAPGI (Artificial based on human, HMGB1 B box-linker-C1q peptide) KLKEKYEKDIAAYRAKGKPDAAKKGVVKAEKSKKGGGGSGGGGSGGGGSKGEQGEPGAPGI",LTB4 induction by HMGB1 in murine macrophages,murine macrophages,abolishes LTB4 induction
same,RvD2 in murine macrophages,murine macrophages; HMGB1 challenge,induces RvD2
same,anti-DNA IgM/IgG-producing splenocytes,NZB/W mice; NZB/W mice in vivo,decreases anti-DNA IgM/IgG-producing splenocytes
same,inflammatory and anti-inflammatory markers in splenocytes,NZB/W mice; NZB/W mice in vivo,decreases inflammatory and increases anti-inflammatory markers
same,progression of serum anti-dsDNA antibodies,NZB/W mice; NZB/W mice in vivo,slows the progression
same,kidney IgG deposition,"NZB/W mice; NZB/W mice, staining data not shown",decreases kidney IgG deposition
